The chains are these.
B1: VPS4A MIT domain (VPS4A residues 1−84) (domain or fragment, human, UniProt Q9UN37 1-84, looked up)
chain: MTTSTLQKAIDLVTKATEEDKAKNYEEALRLYQHAVEYFLHAIKYEAHSDKAKESIRAKCVQYLDRAEKLKDYLRSKEKHGKKP

The target of test [1] is B1. In words: NMR solution structure.
A further test concerns the target CHMP6 MIM2 L178D (human). In words: SPR. Background: Surface plasmon resonance follows binding to a sensor surface in real time, without labels.
The target in test [2] is T1, GST-CHMP6 without the final 20 residues (human, UniProt Q96FZ7 1-181).
T1 sequence (looked up): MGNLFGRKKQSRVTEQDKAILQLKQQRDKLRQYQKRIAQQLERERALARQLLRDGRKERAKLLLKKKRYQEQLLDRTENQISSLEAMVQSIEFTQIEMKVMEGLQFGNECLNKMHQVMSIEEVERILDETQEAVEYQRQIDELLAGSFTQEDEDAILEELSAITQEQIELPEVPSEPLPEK
In words: SPR.

The target in test [3] is T2, full length GST-CHMP6_(1−201) (human, UniProt Q96FZ7 1-201).
T2 sequence (looked up): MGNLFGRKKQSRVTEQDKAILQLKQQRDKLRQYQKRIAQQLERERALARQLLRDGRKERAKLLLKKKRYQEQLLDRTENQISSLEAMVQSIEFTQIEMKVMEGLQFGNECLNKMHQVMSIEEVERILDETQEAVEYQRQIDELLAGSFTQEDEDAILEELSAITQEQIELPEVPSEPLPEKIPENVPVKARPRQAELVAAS
Put plainly: SPR.

In test [4] the target is B1. In words: SPR.
In a further test the target is T3, VPS4A MIT_(L64D) (human, UniProt Q9UN37 1-84, L64D).
T3 sequence (looked up): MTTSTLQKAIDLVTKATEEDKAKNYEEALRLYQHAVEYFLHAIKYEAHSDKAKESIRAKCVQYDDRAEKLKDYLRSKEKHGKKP
In words: SPR.

Test [5] concerns the target T4, GST-CHMP6 (construct of the VPS4B measurement not stated) (human, UniProt Q96FZ7 1-201).
T4 sequence (looked up): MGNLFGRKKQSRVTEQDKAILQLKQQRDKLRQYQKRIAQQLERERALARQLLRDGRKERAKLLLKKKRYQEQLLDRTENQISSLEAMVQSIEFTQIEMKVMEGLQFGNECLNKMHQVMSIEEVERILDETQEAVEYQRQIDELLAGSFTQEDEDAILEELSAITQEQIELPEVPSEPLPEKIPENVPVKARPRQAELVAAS
In words: SPR.

As to EQIELPEVPSEPLPEK (peptide, UniProt Q96FZ7 166-181, looked up) [CHMP6_(166−181) MIM2 peptide], in test [1], the binding result is given as “binds”. For the molecule B1, the results for the Kd (with CHMP6 MIM2 L178D (human); in test [2]; in test [3]) were 44.4 µM, 23.2 ± 0.2 µM and 33 ± 7 µM, respectively. As to LPEVPSEPLPEK (domain or fragment, human, UniProt Q96FZ7 170-181, looked up) [GST-CHMP6_(170−181) minimal fragment], the Kd (usually the constant that tells how readily two partners part at equilibrium) in test [4] was 8 ± 0.1 µM. Regarding QEQIELPEVPSEPLPEK (domain or fragment, human, UniProt Q96FZ7 165-181, looked up) [GST-CHMP6_(165−181) fragment], the Kd worked out at 5.8 ± 0.8 µM in test [4] and 26.1 ± 0.8 µM with VPS4A MIT_(L64D).

B2: VPS4B MIT domain (domain or fragment, human, UniProt O75351 4-82, looked up)
chain: TSPNLQKAIDLASKAAQEDKAGNYEEALQLYQHAVQYFLHVVKYEAQGDKAKQSIRAKCTEYLDRAEKLKEYLKNKEKK
In test [5], B2 came in with a Kd of 786 ± 6 µM.

The values are drawn from article PMC2586299 (Developmental cell, 2008).
